For two molecules, Kd, koff and kon results are on record in patent US20160369011A1.

The assay has as its target T1, human TEM1 (endosialin/CD248) (human) (UniProt Q9HCU0).
T1 sequence (chain, biotinylated in the SPR assay of Table 6 (sites not stated)): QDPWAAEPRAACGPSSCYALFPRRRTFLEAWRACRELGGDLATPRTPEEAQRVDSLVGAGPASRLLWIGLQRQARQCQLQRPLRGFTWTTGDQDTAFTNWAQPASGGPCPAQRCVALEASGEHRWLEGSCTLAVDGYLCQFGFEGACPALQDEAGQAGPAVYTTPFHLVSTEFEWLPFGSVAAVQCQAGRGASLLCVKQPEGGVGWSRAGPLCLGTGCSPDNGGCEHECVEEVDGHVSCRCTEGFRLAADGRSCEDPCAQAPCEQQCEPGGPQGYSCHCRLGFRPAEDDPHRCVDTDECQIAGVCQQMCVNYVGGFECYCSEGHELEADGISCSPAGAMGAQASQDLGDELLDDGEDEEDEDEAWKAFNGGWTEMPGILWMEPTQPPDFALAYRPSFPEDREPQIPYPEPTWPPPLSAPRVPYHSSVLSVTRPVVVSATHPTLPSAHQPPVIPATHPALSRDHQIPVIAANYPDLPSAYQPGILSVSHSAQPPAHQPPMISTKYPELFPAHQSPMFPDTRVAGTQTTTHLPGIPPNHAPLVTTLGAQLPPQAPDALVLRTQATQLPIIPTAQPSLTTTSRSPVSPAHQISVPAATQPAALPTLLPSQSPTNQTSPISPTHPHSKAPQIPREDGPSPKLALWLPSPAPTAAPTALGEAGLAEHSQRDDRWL
Description: SPR (BIAcore), biotin-hTEM1 captured on CAP chip, antibody 0-50 nM as analyte. For orientation: SPR reads the build-up and loss of mass on a sensor chip optically.

B1: 1-55-2 (rabbit anti-hTEM1 mAb) (antibody, V domains shown)
VH: QSVEESGGDLVKPEGSLTLTCTASGFSFSSSYWGCWVRQAPGKGPEWIACIYGGSSGTTYYPNWAKGRFSISKTSSTTVTLQMASLTAADTATYFCARVTNGGDWDFKLWGPGTLVTISS
VL: ELVMTQTPASVEVAVGGTVTIKCQASQSINTYLAWYQQKPGQPPKLLIYRASTLASGVPSRFKGSGSGTEFTLTISDLECADAATYYCQQSVRVIDVDNTFGGGTEVVVK
The molecule B1 came in with an equilibrium dissociation constant (Kd) of 0.015 nM, a koff of 5.8e-05 s⁻¹ and a kon of 3.7e+06 M⁻¹ s⁻¹.

B2: xi1-55-2 (rabbit/human chimerized 1-55-2 mAb) (antibody, human IgG1, kappa, V domains shown)
VH: B1 VH
VL: ELVMTQTPASVEVAVGGTVTIKCQASQSINTYLAWYQQKPGQPPKLLIYRASTLASGVPSRFKGSGSGTEFTLTISDLECADAATYYCQQSVRVIDVDNTFGGGTEVVVKR
B2 registered a Kd of 0.046 nM, a dissociation rate constant (koff) of 7.1e-05 s⁻¹ and a kon of 1.5e+06 M⁻¹ s⁻¹.

In general, Kd refers to a measure of binding affinity in units of concentration. As a reminder, the koff is the first-order rate constant of dissociation. Low values mean a long-lived complex, high ones a short-lived complex. One may read the kon as a measure of how fast the partners come together. Lower therefore signals slow association.
